Source: patent publication US20190085323A1 (published 2019)

Legend:
[1] = target: HER2 on the surface of N87 gastric cancer cells (human) (UniProt P04626); assay: flow cytometry on N87 cells, 0.5 nM scFv detected with AL1-RFP
[2] = target: HER2 on the surface of N87 gastric cancer cells (human) (UniProt P04626); assay: cell-based or functional assay

Row | MFI [1] | Binder | % cell viability (AL1) [2] [%] | % cell viability (AL2) [2] [%]
1 | 444 | 29TYL#10 source scFv (scFv, V domains shown, not shown: large carriers, VL-linker-VH scFv; linker and E-tag not given) VH: EVQLVESGGGLVQPGGSLRLSCKASGYTFTDGSMHWVRQAPGKGLEWVAYINPYFGDTYYADSVKGRFTISADTSKNTAYLQMNSLRAEDTAVYYCARGWIDYWGQGTLVTVSS VL: DIQMTQSPSSLSASVGDRVTITCKSNQNLLLSNGRTFLYWYQQKPGKAPKLLIYGTSYLYSGVPSRFSGSGSGTDFTLTISSLQPEDFATYYCFQANHLPWTFGQGTKVEIKR | 79.9 | 64.8
2 | 495 | 2835-28 source scFv (scFv, V domains shown, not shown: large carriers, VL-linker-VH scFv; linker and E-tag not given) VH: EVQLVESGGGLVQPGGSLRLSCKASGYTFTDGSMHWVRQAPGKGLEWVAYINPYFGDTYYADSVKGRFTISADTSKNTAYLQMNSLRAEDTAVYYCARGWIDYWGQGTLVTVSS VL: DIQMTQSPSSLSASVGDRVTITCKSNQNLLLSNGRTFLYWYQQKPGKAPKLLIYGTSYLYSGVPSRFSGSGSGTDFTLTISSLQPEDFATYYCFQANHLPWTFGQGTKVEIKR | 52.8 | 29.9
